Source: patent publication US20020123614A1

How the values were obtained:
Conditions in all cases: remark: other sources report otherwise
[1] = target: T1, recombinant ICAM-1 Fc chimera, P05362; assay: BIAcore; Kon calculated by Koff/KD
T1 chain: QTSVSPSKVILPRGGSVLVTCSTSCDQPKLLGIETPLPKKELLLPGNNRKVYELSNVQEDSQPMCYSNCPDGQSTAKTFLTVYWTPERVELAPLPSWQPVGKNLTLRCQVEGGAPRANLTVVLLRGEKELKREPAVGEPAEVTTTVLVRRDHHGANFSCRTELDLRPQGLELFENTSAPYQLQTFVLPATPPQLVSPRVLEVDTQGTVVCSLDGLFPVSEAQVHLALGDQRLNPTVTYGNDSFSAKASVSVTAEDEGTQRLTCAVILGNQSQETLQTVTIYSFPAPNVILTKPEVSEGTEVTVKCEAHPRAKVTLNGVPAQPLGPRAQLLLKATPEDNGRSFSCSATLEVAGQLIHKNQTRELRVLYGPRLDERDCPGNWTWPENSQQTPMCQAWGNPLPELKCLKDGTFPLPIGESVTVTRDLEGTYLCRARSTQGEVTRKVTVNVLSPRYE

[2] = target: T1, recombinant ICAM-1 Fc chimera, P05362; assay: BIAcore; dissociation phase, 1:1 model
[3] = target: T1, recombinant ICAM-1 Fc chimera, P05362; assay: BIAcore; Scatchard plots at steady state

kon [1]: 2220 M⁻¹ s⁻¹ | koff [2]: 3 s⁻¹ | Kd [3]: 1350 µM
B1: recombinant soluble wild-type αL I-domain (G128-Y307), E. coli, P20701 153-332 (receptor)
chain: GNVDLVFLFDGSMSLQPDEFQKILDFMKDVMKKLSNTSYQFAAVQFSTSYKTEFDFSDYVKRKDPDALLKHVKHMLLLTNTFGAINYVATEVFREELGARPDATKVLIIITDGEATDSGNIDAAKDIIRYIIGIGKHFQTKESQETLHKFASKPASEFVKILDTFEKLKDLFTELQKKIY
